Article PMC4224607 (Chemical communications (Cambridge, England), 2014)
Non-standard residues stand in square brackets, D forms with d. No end group written: not given here.

Biological target: human carbonic anhydrase II (human, UniProt P00918 1-260)
Experiment: SPR

Kd: 5.8 µM
B1: fplsk (peptide)
peptide: [dF][dP][dL][dS][dK]
